Ends that are not written are not given here.
Assays:
[1] = system: insulin-stimulated glycogen synthesis in soleus muscle; conditions: cited from earlier work
[2] = target: amylin receptors (membrane-bound amylin receptors)
[3] = target: amylin receptors (membrane-bound amylin receptors); assay: receptor binding assay: competition with 125I Bolton Hunter rat amylin for membrane-bound amylin receptors
food intake in rats = conditions: IP, 0.5 μg/kg; cited from earlier work
food intake in mice = assay: food intake in food-deprived mice after intraperitoneal injection; type: in vivo
Description: Male NIH/Swiss Webster (Hsd:NIHS) mice, 8-10 weeks of age, were obtained from Harlan Sprague Dawley, Madison, Wis. Animals were exposed to 12:12 hour light-dark cycle, with lights off at 18:00, and with room temperature between 22° and 25° C. Water and food (Teklan 7002, Harlan Teklad, Madison, Wis.) were available ad libitum except as indicated below. Animals were adapted to the vivarium environment for at least one week before experiments were carried out.
Rat amylin (AC128) was synthesized by Fmoc solid phase synthesis. […] Peptides were dissolved in sterile water to obtain stock solutions of 1 mg/ml. Further dilutions were made with sterile saline just prior to intraperitoneal injections.
Animals were individually housed and deprived of food for 18-20 hours before experiments. Animals were allowed ad libitum access to water before and during the experiments. Immediately after intraperitoneal injection of rat amylin or CCK-8 or saline, all animals received a pre-weighed pellet of food. Food intake for each animal was measured by weighing the food pellet at 30 minutes following injection and providing food.

[4] = solubility and stability characteristics compared to human amylin; type: physicochemical

| Compound | Soleus Muscle (EC50, nM) [2] [nM] | IC50 [3] [nM] | other results |
| --- | --- | --- | --- |
| Eel calcitonin: calcitonin from fish (eel), ultimobranchial calcitonin (CSNLSTCVLGKLSQELHKLQTYPRTDVGAGTP; ends and bridges not checked; cysteine pairing not given here) | – | – | EC50 [1]: 0.4 nM |
| Chicken calcitonin: ultimobranchial calcitonin closely related to fish calcitonins (CASLSTCVLGKLSQELHKLQTYPRTDVGAGTP; ends and bridges not checked; cysteine pairing not given here) | – | – | EC50 [1]: 0.7 nM |
| Salmon calcitonin: calcitonin from fish (salmon), ultimobranchial calcitonin, amylin agonist | – | – | EC50 [1]: 0.4 nM |
| Chicken calcitonin (from UniProt P07660) (ligand) | 0.7 | 0.03 | – |
| Eel calcitonin (from UniProt P01262) (ligand) | 0.4 | 0.09 | – |
| 1.7-Asn-eel Calcitonin (from UniProt P01262) (peptide) | 0.3 | 0.05 | – |
| amylin: amylin of unstated species in a literature report (KCNTATCATQRLANFLVHSSNNFGAILSSTNVGSNTY; Islet amyloid polypeptide; UniProt P10997 34-70, looked up) | – | – | effect on food intake (food intake in rats): significantly decreased food intake |
| CSCC[C@H](NC(=O)[C@H](Cc1ccc(OS(=O)(=O)O)cc1)NC(=O)[C@@H](N)CC(=O)O)C(=O)NCC(=O)N[C@@H](Cc1c[nH]c2ccccc12)C(=O)N[C@@H](CCSC)C(=O)N[C@@H](CC(=O)O)C(=O)N[C@@H](Cc1ccccc1)C(N)=O [CCK-8, Asp-Tyr(SO3 H)-Met-Gly-Trp-Met-Asp-Phe-NH2] | – | – | effect on food intake (food intake in mice; IP injection of 1.0 μg/kg, peptide alone): no measurable effect; suppressed food intake (food intake in mice; mice, intraperitoneal, 1.0 μg/kg of each peptide, at 30 minutes): 10.6±16.9% |
| Human amylin (from UniProt P10997) (ligand) | 1.6 | 0.05 | – |
| Salmon calcitonin (from UniProt P01263) (ligand) | 0.4 | 0.07 | – |
| CC[C@H](C)[C@H](NC(=O)[C@@H]1CCCN1C(=O)CNC(=O)[C@H](Cc1ccccc1)NC(=O)[C@H](CC(N)=O)NC(=O)[C@H](CC(N)=O)NC(=O)[C@H](CO)NC(=O)[C@H](CO)NC(=O)[C@H](Cc1c[nH]cn1)NC(=O)[C@@H](NC(=O)[C@H](CC(C)C)NC(=O)[C@H](Cc1ccccc1)NC(=O)[C@H](CC(N)=O)NC(=O)[C@H](C)NC(=O)[C@H](CC(C)C)NC(=O)[C@H](CCCNC(=N)N)NC(=O)[C@H](CCC(N)=O)NC(=O)[C@@H](NC(=O)[C@H](C)NC(=O)[C@@H]1CSSC[C@H](NC(=O)[C@@H](N)CCCCN)C(=O)N[C@@H](CC(N)=O)C(=O)N[C@@H]([C@@H](C)O)C(=O)N[C@@H](C)C(=O)N[C@@H]([C@@H](C)O)C(=O)N1)[C@@H](C)O)C(C)C)C(=O)N[C@@H](CC(C)C)C(=O)N1CCC[C@H]1C(=O)N1CCC[C@H]1C(=O)N[C@H](C(=O)N[C@@H](CC(N)=O)C(=O)N[C@H](C(=O)NCC(=O)N[C@@H](CO)C(=O)N[C@@H](CC(N)=O)C(=O)N[C@H](C(=O)N[C@@H](Cc1ccc(O)cc1)C(N)=O)[C@@H](C)O)C(C)C)[C@@H](C)O [^25,28,29 Pro-h-amylin] | – | – | solubility characteristics [4]: more desirable; stability characteristics [4]: more desirable |

— US5739106A, “Appetite regulating compositions” (priority 1995, dated 1998)
